What was measured:
[1] = molecular target: GST-VAPB-MSP (wild-type MSP-domain of VAPB fused to a GST-tag) (UniProt O95292); experiment: peptide pull-down of purified protein, Coomassie gel quantification; conditions: parent: est. 1.0; read off a plot
[2] = molecular target: VAPB (Vesicle-Associated-membrane Protein-associated protein B), endogenous (UniProt O95292); experiment: peptide pull-down from total HeLa cell lysate, Western blot quantification; conditions: parent: est. 1.0; read off a plot

ratio to parent [1]: 1.1
ratio to parent [2]: 0.5
Substance: ELYS FFAT-2 peptide, non-phosphorylated S1314A; S1326A
